From patent US9625458 come the findings set out here.

A word on the Kd: it is a measure of binding affinity in units of concentration. Read a high Kd as lower affinity.

Where a chain is given by its changes, count along the chain named. Numbers in names are those of the source.

B1: dipeptide BP W315C-JPW4039 conjugate (receptor, E. coli, not shown: small tags and cut ends)
chain: MKTLVYCSEGSPEGFNPQLFTSGTTYDASSVPLYNRLVEFKIGTTEVIPGLAEKWEVSEDGKTYTFHLRKGVKWHDNKEFKPTRELNADDVVFSFDRQKNAQNPYHKVSGGSYEYFEGMGLPELISEVKKVDDNTVQFVLTRPEAPFLADLAMDFASILSKEYADAMMKAGTPEKLDLNPIGTGPFQLQQYQKDSRIRYKAFDGYWGTKPQIDTLVFSITPDASVRYAKLQKNECQVMPYPNPADIARMKQDKSINLMEMPGLNVGYLSYNVQKKPLDDVKVRQALTYAVNKDAIIKAVYQGAGVSAKNLIPPTMCGYNDDVQDYTYDPEKAKALLKEAGLEKGFSIDLWAMPVQRPYNPNARRMAEMIQADWAKVGVQAKIVTYEWGEYLKRAKDGEHQTVMMGWTGDNGDPDNFFATLFSCAASEQGSNYSKWCYKPFEDLIQPARATDDHNKRVELYKQAQVVMHDQAPALIIAHSTVFEPVRKEVKGYVVDPLGKHHFENVSIE
modifications: JPW4039 fluorophore conjugated to the thiol of Cys 315
B2: dipeptide BP T44C-NBD conjugate (receptor, E. coli, not shown: small tags and cut ends)
chain: B1 chain with T45C, C316W
modifications: NBD fluorophore conjugated to the thiol of Cys 44
B3: dipeptide BP W315C-JPW4045 conjugate (receptor, E. coli, not shown: small tags and cut ends)
chain: B1 chain
modifications: JPW4045 fluorophore conjugated to the thiol of Cys 315
B4: dipeptide BP W315C-NBD conjugate (receptor, E. coli, not shown: small tags and cut ends)
chain: B1 chain
modifications: NBD fluorophore conjugated to the thiol of Cys 315
B5: dipeptide BP T44C-Fluorescein conjugate (receptor, E. coli, not shown: small tags and cut ends)
chain: B1 chain with T45C, C316W
modifications: fluorescein (5-iodoacetamidofluorescein) conjugated to the thiol of Cys 44
B6: dipeptide BP K394C-Fluorescein conjugate (receptor, E. coli, not shown: small tags and cut ends)
chain: B1 chain with C316W, K395C
modifications: fluorescein (5-iodoacetamidofluorescein) conjugated to the thiol of Cys 394
B7: dipeptide BP D450C-JPW4042 conjugate (receptor, E. coli, not shown: small tags and cut ends)
chain: B1 chain with C316W, D451C
modifications: JPW4042 fluorophore conjugated to the thiol of Cys 450
B8: dipeptide BP D450C-JPW4045 conjugate (receptor, E. coli, not shown: small tags and cut ends)
chain: B1 chain with C316W, D451C
modifications: JPW4045 fluorophore conjugated to the thiol of Cys 450
B9: dipeptide BP W315C-Acrylodan conjugate (receptor, E. coli, not shown: small tags and cut ends)
chain: B1 chain
modifications: acrylodan fluorophore conjugated to the thiol of Cys 315
B10: dipeptide BP S111C-JPW4042 conjugate (receptor, E. coli, not shown: small tags and cut ends)
chain: B1 chain with S112C, C316W
modifications: JPW4042 fluorophore conjugated to the thiol of Cys 111
B11: dipeptide BP K394C-JPW4039 conjugate (receptor, E. coli, not shown: small tags and cut ends)
chain: B1 chain with C316W, K395C
modifications: JPW4039 fluorophore conjugated to the thiol of Cys 394
B12: dipeptide BP R141C-Acrylodan conjugate (receptor, E. coli, not shown: small tags and cut ends)
chain: B1 chain with R142C, C316W
modifications: acrylodan fluorophore conjugated to the thiol of Cys 141
B13: dipeptide BP S111C-Acrylodan conjugate (receptor, E. coli, not shown: small tags and cut ends)
chain: B1 chain with S112C, C316W
modifications: acrylodan fluorophore conjugated to the thiol of Cys 111
B14: dipeptide BP S111C-Fluorescein conjugate (receptor, E. coli, not shown: small tags and cut ends)
chain: B1 chain with S112C, C316W
modifications: fluorescein (5-iodoacetamidofluorescein) conjugated to the thiol of Cys 111
B15: dipeptide BP R141C-Fluorescein conjugate (receptor, E. coli, not shown: small tags and cut ends)
chain: B1 chain with R142C, C316W
modifications: fluorescein (5-iodoacetamidofluorescein) conjugated to the thiol of Cys 141
B16: dipeptide BP K394C-Acrylodan conjugate (receptor, E. coli, not shown: small tags and cut ends)
chain: B1 chain with C316W, K395C
modifications: acrylodan fluorophore conjugated to the thiol of Cys 394
B17: dipeptide BP K394C-JPW4042 conjugate (receptor, E. coli, not shown: small tags and cut ends)
chain: B1 chain with C316W, K395C
modifications: JPW4042 fluorophore conjugated to the thiol of Cys 394
B18: dipeptide BP K394C-NBD conjugate (receptor, E. coli, not shown: small tags and cut ends)
chain: B1 chain with C316W, K395C
modifications: NBD fluorophore conjugated to the thiol of Cys 394
B19: dipeptide BP D450C-Acrylodan conjugate (receptor, E. coli, not shown: small tags and cut ends)
chain: B1 chain with C316W, D451C
modifications: acrylodan fluorophore conjugated to the thiol of Cys 450
B20: dipeptide BP S111C-JPW4039 conjugate (receptor, E. coli, not shown: small tags and cut ends)
chain: B1 chain with S112C, C316W
modifications: JPW4039 fluorophore conjugated to the thiol of Cys 111
B21: dipeptide BP D450C-JPW4039 conjugate (receptor, E. coli, not shown: small tags and cut ends)
chain: B1 chain with C316W, D451C
modifications: JPW4039 fluorophore conjugated to the thiol of Cys 450
B22: dipeptide BP K394C mutant conjugated to NBD (protein, Escherichia coli, not shown: small tags and cut ends)
chain: B1 chain with C316W, K395C
modifications: NBD fluorophore (N,N'-dimethyl-N-(iodoacetyl)-N'-(7-nitrobenz-2-oxa-1,3-diazol-4-yl)ethylenediamide) conjugated to the thiol of Cys 394
B23: dipeptide BP K394C conjugated to fluorescein (receptor, E. coli, not shown: small tags and cut ends)
chain: B1 chain with C316W, K395C
modifications: fluorescein (5-iodoacetamidofluorescein) conjugated to the thiol of Cys 394
B24: dipeptide BP T44C conjugated to NBD (receptor, E. coli, not shown: small tags and cut ends)
chain: B1 chain with T45C, C316W
modifications: NBD (N,N'-dimethyl-N-(iodoacetyl)-N'-(7-nitrobenz-2-oxa-1,3-diazol-4-yl)ethylenediamide) conjugated to the thiol of Cys 44

The target in one assay is Gly-Leu dipeptide. The assay is described as follows: fluorimetric titration of the fluorophore conjugate with ligand, fit to binding isotherm.
For the molecule B1, the Kd is 1 µM.

B2 had a dissociation constant (Kd) of 0.006 µM.

Consider B3, for which the equilibrium dissociation constant (Kd) came to 3.2 µM.

Molecule B4 yielded a Kd of 0.06 µM.

Molecule B5 had a Kd of 0.64 µM. This Kd lies about 11-fold higher than the previous one.

The molecule B6 gave a Kd of 93 µM.

B7 showed an equilibrium dissociation constant (Kd) of 1.5 µM. Compared with the last molecule, the Kd is about 62-fold lower.

Consider B8, for which the Kd came to 2 µM.

Take B9: the Kd turned out to be 0.13 µM.

As for B10, the Kd amounted to 15.8 µM.

Molecule B11 gave a Kd of 30 µM.

B12 registered a Kd of 2.3 µM.

Take B13: the Kd turned out to be 4.8 µM. This Kd is about 2.1-fold higher than that of the molecule before.

Turning to B14, the Kd stood at 2.6 µM.

B15 registered a Kd of 38 µM. This Kd is about 15-fold higher than that of the molecule before.

The molecule B16 registered a Kd of 23 µM.

B17: the Kd turned out to be 78 µM.

B18 came in with a Kd of 0.012 µM. This Kd is about 6500-fold lower than that of the molecule before.

Turning to B19, the Kd was 11 µM. This Kd is about 920-fold higher than that of the molecule before.

As for B20, the Kd turned out to be 34 µM.

Turning to B21, the Kd came out at 0.91 µM. Against the preceding molecule, the Kd is about 37-fold lower.

Another assay concerns the target Gly-Leu dipeptide. The assay is described as follows: fluorimetric titration of the fluorophore conjugate with ligand, fit to a binding isotherm.
Molecule B22 returned a Kd of 0.006 µM.

A further assay has as its target Gly-Leu dipeptide. Description: fluorimetric titration of the fluorophore conjugate with ligand; high end of the range over 21 conjugates.
With B23, the Kd came to 93 µM.

Another assay addresses Gly-Leu dipeptide. Description: fluorimetric titration of the fluorophore conjugate with ligand; low end of the range over 21 conjugates.
The molecule B24 yielded a Kd of 0.006 µM.
